The values below come from patent publication US20260217793A1 (Chugai, published 2026).

Assay [1] deals with T1, mouse FcγRIIb (mouse, UniProt P08101 30-210).
T1 sequence (looked up): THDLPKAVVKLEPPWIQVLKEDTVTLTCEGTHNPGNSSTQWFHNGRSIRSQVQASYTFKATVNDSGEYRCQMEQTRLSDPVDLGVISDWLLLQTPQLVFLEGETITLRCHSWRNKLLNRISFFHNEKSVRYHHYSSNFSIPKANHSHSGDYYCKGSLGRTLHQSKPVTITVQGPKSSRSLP
Description: SPR. For orientation: SPR reads the build-up and loss of mass on a sensor chip optically.

The target of assay [2] is T2, mouse FcγRIII (mouse, UniProt P08508 31-215).
T2 sequence (looked up): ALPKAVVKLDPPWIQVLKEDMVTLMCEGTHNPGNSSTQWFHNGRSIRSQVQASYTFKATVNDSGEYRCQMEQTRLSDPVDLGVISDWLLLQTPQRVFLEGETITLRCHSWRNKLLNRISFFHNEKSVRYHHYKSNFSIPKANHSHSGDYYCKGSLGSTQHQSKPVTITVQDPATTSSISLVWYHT
Briefly: SPR.

Assay [3] has as its target T1, mouse FcγRIIb. Description: SPR. The source holds these as a separate data set.
Assay [4] concerns the target T2, mouse FcγRIII. Description: SPR. The source holds these as a separate data set.
Assay [5] has as its target human FcγRIa extracellular domain with C-terminal His tag (human, UniProt P12314 16-292). Briefly: SPR.
The target in assay [6] is T3, human FcγRIIa type R (Arg131) extracellular domain with C-terminal His tag (human, UniProt P12318 34-217).
T3 sequence (looked up): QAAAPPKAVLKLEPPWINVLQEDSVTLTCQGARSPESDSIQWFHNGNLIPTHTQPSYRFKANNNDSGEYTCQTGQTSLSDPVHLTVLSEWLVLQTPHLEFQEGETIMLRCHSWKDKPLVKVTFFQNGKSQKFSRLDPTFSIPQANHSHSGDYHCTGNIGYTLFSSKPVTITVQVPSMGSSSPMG
Description: SPR.

Assay [7] has as its target T4, human FcγRIIb extracellular domain with C-terminal His tag (human, UniProt P31994 43-217).
T4 sequence (looked up): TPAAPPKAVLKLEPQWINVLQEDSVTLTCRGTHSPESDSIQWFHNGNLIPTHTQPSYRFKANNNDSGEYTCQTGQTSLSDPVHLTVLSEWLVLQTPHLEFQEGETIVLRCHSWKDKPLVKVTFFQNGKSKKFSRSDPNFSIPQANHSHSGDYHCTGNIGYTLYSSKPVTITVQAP
Briefly: SPR.

The target in assay [8] is T5, human FcγRIIa type R (human, UniProt P12318 34-217).
T5 sequence (looked up): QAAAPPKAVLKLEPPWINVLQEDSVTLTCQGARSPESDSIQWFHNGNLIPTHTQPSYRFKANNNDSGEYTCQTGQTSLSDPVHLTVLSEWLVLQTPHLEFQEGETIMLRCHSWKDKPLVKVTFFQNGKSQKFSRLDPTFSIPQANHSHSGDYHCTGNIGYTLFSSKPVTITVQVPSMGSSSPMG
Description: SPR, amount bound per captured antibody.

Assay [9] concerns the target T6, human FcγRIIb (human, UniProt P31994 43-217).
T6 sequence (looked up): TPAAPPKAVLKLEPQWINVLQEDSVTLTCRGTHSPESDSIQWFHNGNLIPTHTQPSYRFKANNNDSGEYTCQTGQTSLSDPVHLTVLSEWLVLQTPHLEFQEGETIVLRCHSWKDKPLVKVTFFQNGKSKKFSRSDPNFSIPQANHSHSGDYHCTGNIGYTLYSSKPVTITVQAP
Briefly: SPR, amount bound per captured antibody.

Assay [10] concerns the target T7, human FcγRIIb extracellular domain with C-terminal His tag (human, UniProt P31994 43-217).
T7 sequence (looked up): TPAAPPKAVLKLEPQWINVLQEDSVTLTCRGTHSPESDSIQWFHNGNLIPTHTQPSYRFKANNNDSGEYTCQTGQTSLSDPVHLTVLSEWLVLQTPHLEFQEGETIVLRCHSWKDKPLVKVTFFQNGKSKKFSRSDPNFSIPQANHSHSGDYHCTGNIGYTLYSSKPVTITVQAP
Briefly: ratio of SPR KDs, FcγRIIaR over FcγRIIb.

Assay [11] addresses T8, human FcγRIIa type R (131Arg) extracellular domain with C-terminal His tag (human, UniProt P12318 34-217).
T8 sequence (looked up): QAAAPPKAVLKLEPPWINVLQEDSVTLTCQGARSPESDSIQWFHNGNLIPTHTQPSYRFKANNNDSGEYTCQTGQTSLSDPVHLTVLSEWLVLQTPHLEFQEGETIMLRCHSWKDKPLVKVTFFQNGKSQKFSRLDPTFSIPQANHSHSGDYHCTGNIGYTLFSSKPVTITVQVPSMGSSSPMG
Description: ratio of SPR KDs, reference IL6R-B3/IL6R-L.

The target in assay [12] is T7, human FcγRIIb extracellular domain with …. Briefly: ratio of SPR KDs, reference IL6R-B3/IL6R-L.
Assay [13] addresses T5, human FcγRIIa type R. Briefly: ratio of SPR KD values.
The target of assay [14] is T6, human FcγRIIb. Briefly: ratio of SPR KD values.
For assay [15], the target named is human IgA (recombinant, variable region from an anti-human IL6R antibody) (human). Briefly: SPR.
Assay [16] deals with human IgA (hIgA). Description: SPR, comparison of calcium conditions.

As a reminder, the Kd is the equilibrium constant for the complex coming apart. Read a high Kd as a looser complex. The term kon denotes the second-order rate constant of association.

human FcγRIa extracellular domain with C-terminal His tag, sequence (P12314 16-292): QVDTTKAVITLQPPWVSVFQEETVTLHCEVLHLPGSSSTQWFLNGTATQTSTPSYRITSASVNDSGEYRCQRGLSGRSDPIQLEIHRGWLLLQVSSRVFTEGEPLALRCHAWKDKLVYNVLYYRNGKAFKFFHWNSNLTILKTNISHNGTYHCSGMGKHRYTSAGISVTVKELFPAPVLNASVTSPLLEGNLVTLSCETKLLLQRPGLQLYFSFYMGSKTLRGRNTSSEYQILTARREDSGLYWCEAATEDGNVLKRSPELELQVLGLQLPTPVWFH

B1: VH3/L(WT)-mIgG1-MB367 (antibody)
heavy: QVQLQESGPGLVKPSETLSLTCAVSGHSISHDHAWSWVRQPPGEGLEWIGFISYSGITNYNPSLQGRVTISRDNSKNTLYLQMNSLRAEDTAVYYCARSLARTTAMDYWGEGTLVTVSSAKTTPPSVYPLAPGSAAQTNSMVTLGCLVKGYFPEPVTVTWNSGSLSSGVHTFPAVLQSDLYTLSSSVTVPSSTWPSETVTCNVAHPASSTKVDKKIVPRDCGCKPCICEANEVEDVFIFPPKPKDVLTITLTPKVTCVVVDISKDDPEVQFSWFVDDVEVHTAQTQPREEQFNSTFRSVSELPIMHQDWLNGKEFKCRVNSAAFPAPIEKTISKTKGRPKAPQVYTIPPPKEQMAKDKVSLTCMITDFFPEDITVEWQWNGQPAENYKNTQPIMDTDGSYFVYSKLNVQKSNWEAGNTFTCSVLHEGLHNHHT
light: not shown
In the case of B1, the “binding ratio compared to mIgG1” value in [1] turned out to be 159; in [2], 6.2. Moreover, the figures for the Kd in [3] and in [4] were 1.32 nM and 45.4 nM, respectively.

B2: IL6R-BP500/IL6R-L (antibody, human IgG1, kappa)
heavy: QVQLQESGPGLVKPSETLSLTCAVSGHSISHDHAWSWVRQPPGEGLEWIGFISYSGITNYNPSLQGRVTISRDNSKNTLYLQMNSLRAEDTAVYYCARSLARTTAMDYWGEGTLVTVSSASTKGPSVFPLAPSSKSTSGGTAALGCLVKDYFPEPVTVSWNSGALTSGVHTFPAVLQSSGLYSLSSVVTVPSSSLGTQTYICNVNHKPSNTKVDKKVEPKSCDKTHTCPPCPAPELLGDDSVFLFPPKPKDTLMISRTPEVTCVVIDVAEEDGEVKFNWYVDGVEVHNAKTKPREEQDNSTYRVVSVLTVLHQDWLNGKEYKCKVSNKALPAPIEKTISKAKGQPREPQVYTLPPSRDELTKNQVSLTCLVKGFYPSDIAVEWESNGQPENNYKTTPPVLDSDGSFFLYSKLTVDKSRWQQGNVFSCSVMHEALHNHYTQESLSLSP
light: not shown
As to B2, the binding result in assay [5] is “binds”. In addition, the “KD (IIaR) of parent polypeptide/KD (IIaR) of altered polypeptide” value in [6] was determined as 1.5. The “KD (IIb) of parent polypeptide/KD (IIb) of altered polypeptide” value in assay [7] was determined as 128.

B3: IL6R-F652/IL6R-L (antibody, human IgG1, kappa)
heavy: QVQLQESGPGLVKPSETLSLTCAVSGHSISHDHAWSWVRQPPGEGLEWIGFISYSGITNYNPSLQGRVTISRDNSKNTLYLQMNSLRAEDTAVYYCARSLARTTAMDYWGEGTLVTVSSASTKGPSVFPLAPSSKSTSGGTAALGCLVKDYFPEPVTVSWNSGALTSGVHTFPAVLQSSGLYSLSSVVTVPSSSLGTQTYICNVNHKPSNTKVDKKVEPKSCDKTHTCPPCPAPELLGGDSVFLFPPKPKDTLYISRTPEVTCVVVDVSHEDPEVKFNWYVDGVEVHNAKTKPREEQYNSTYRVVSVLTVLHQDWLNGKEYKCKVSNKALPAPIEKTISKAKGQPREPQVYTLPPSRDELTKNQVSLTCLVKGFYPSDIAVEWESNGQPENNYKTTPPVLDSDGSFFLYSKLTVDKSRWQQGNVFSCSVMHEALHYHYTQKSLSLSP
light: not shown
For B3, the “relative binding activity (IL6R-F652/IL6R-L = 100)” value in assay [8] and in [9] was 100 in each case.

B4: IL6R-BP478/IL6R-L (antibody)
heavy: QVQLQESGPGLVKPSETLSLTCAVSGHSISHDHAWSWVRQPPGEGLEWIGFISYSGITNYNPSLQGRVTISRDNSKNTLYLQMNSLRAEDTAVYYCARSLARTTAMDYWGEGTLVTVSSASTKGPSVFPLAPCSRSTSESTAALGCLVKDYFPEPVTVSWNSGALTSGVHTFPAVLQSSGLYSLSSVVTVPSSSLGTKTYTCNVDHKPSNTKVDKRVESKYGPPCPPCPAPDLLGDDSVFLFPPKPKDTLMISRTPEVTCVVVDVSDEDGEVKFNWYVDGVEVHNAKTKPREEQDNSTYRVVSVLTVLHQDWLNGKEYKCKVSNKALPRPIEKTISKAKGQPREPQVYTLPPSRDELTKNQVSLTCLVKGFYPSDIAVEWESNGQPENNYKTTPPVLDSDGSFFLYSKLTVDKSRWQQGNVFSCSVMHEALHNHYTQESLSLSP
light: not shown
With B4, the “KD (IIaR)/KD (IIb)” value in [10] came to 28. For the same molecule, the “KD (IIaR) of parent polypeptide/KD (IIaR) of altered polypeptide” value in [11] was determined as 2. Also, the “KD (IIb) of parent polypeptide/KD (IIb) of altered polypeptide” value in assay [12] came to 161.

B5: IL6R-BP478/IL6R-L (antibody)
heavy: QVQLQESGPGLVKPSETLSLTCAVSGHSISHDHAWSWVRQPPGEGLEWIGFISYSGITNYNPSLQGRVTISRDNSKNTLYLQMNSLRAEDTAVYYCARSLARTTAMDYWGEGTLVTVSSASTKGPSVFPLAPCSRSTSESTAALGCLVKDYFPEPVTVSWNSGALTSGVHTFPAVLQSSGLYSLSSVVTVPSSSLGTKTYTCNVDHKPSNTKVDKRVESKYGPPCPPCPAPDLLGDDSVFLFPPKPKDTLMISRTPEVTCVVVDVSDEDGEVKFNWYVDGVEVHNAKTKPREEQDNSTYRVVSVLTVLHQDWLNGKEYKCKVSNKALPRPIEKTISKAKGQPREPQVYTLPPSRDELTKNQVSLTCLVKGFYPSDIAVEWESNGQPENNYKTTPPVLDSDGSFFLYSKLTVDKSRWQQGNVFSCSVMHEALHNHYTQESLSLSP
light: not shown
As to B5, the “binding relative to IL6R-BP230/IL6R-L” value in assay [13] is 0.9 fold; in assay [14] it was 1.1 fold.

B6: GA2-IgG1 (antibody, V domains shown)
VH: QVQLVQSGAEVKKPGSSVKVSCKASGGTFSSYAISWVRQAPGQGLEWMGGIIPIFGTANYAQKFQGRVTITADESTSTAYMELSSLRSEDTAVYYCARPRWETAISSDAFDIWGQGTMVTVSS
VL: DIQMTQSPSSLSASVGDRVTITCRASQSISDDLNWYQQKPGKAPKLLIYEASNLQSGVPSRFSGSGSGTDFTLTISSLQPEDFATYYCQQHSSSPLTFGQGTKVEIKR
For B6, the kon in assay [15] came to 400000 M⁻¹ s⁻¹.

B7: GA2-IgG1 (antibody, V domains shown)
VH: QVQLVQSGAEVKKPGSSVKVSCKASGGTFSSYAISWVRQAPGQGLEWMGGIIPIFGTANYAQKFQGRVTITADESTSTAYMELSSLRSEDTAVYYCARPRWETAISSDAFDIWGQGTMVTVSS
VL: DIQMTQSPSSLSASVGDRVTITCRASQSISDDLNWYQQKPGKAPKLLIYEASNLQSGVPSRFSGSGSGTDFTLTISSLQPEDFATYYCQQHSSSPLTFGQGTKVEIKR
For B7, in assay [16], the “Ca-dependent hIgA-binding activity (fold)” value was no less than 100 fold.
